Reference: a protein production outcome set (Wang et al. 2014)

Test: label from the status in PepcDB records

Sequence	protein production
MPSCAVEGNPSVHTPHPPRPLYPPRPAMPPGESDESLGGQLRGRPEGAAPHPVALLMARHWESTYDYAVICLASSANVASIVTAGAFQQVVGRLMRSGSAAAVRPALLVAVRDTVREWSAEERISGVLPELRKPAGGRGMRAAKSLTPENRVLAERSFLTLPGLSRCLLWHTEVEAESISVPAGLSGIGTDTATAALEQAREQFREGCVRAHRELAPTKECRLYNRLLDVPIRRGGALLPDVQRHLLGCRFCRNAAEQLSHFEGALGGLLAEAVLGWGARRYLESRPGRTPYGGRARGVSGSGGRPGSGGRHRLLAQIPAPGRRTPVGERGARAVLTGVGIASAAVLATFLVTGLWSNDDGNVDPTASTSASGGRTTVLPTPGSQIPPTVSSPPDSAGLPTTPRQTRLRNLAADLCLDVRGEAKAGAGTKLAVCSSAWTQQWTYEKDGLLRSVADPELCLDSGAVDGVAELGRCVAESSAHGGDVRYDLTVQGEVLSRRKGSLAVTPGNTDPDADIVVKVRDGSDKQRWLTDSPSDQPESLSIAGTTPPSATPATDAPAATPAPTPVPASPGTRLTDAPVASSAPPSENYGERRSLTVTDTSTPEPVLPLTVHLPDLLGEIGVGL	failed
MPSETTEHKTGPAVTVVIVSYQSGPTLEPCLARLAAQTFRDFETILIDNFSTDGAPQAAAKAHPWVDFVEAGANLGFAAGNNLAARRAKGRWLVLLNPDAYAEPDWLEELMAGAARHPTVKSFASLQLSADRPGLLDGAGDNVTSAGIPFRGGYGRKPPAVLPEGEVFSACGAAMLIDRDLFLSVGGFDERYFCYCEDVDLGYRLRLYGEPTLLLPKAKVAHVGSASTGVRSDFSIFHGSRNRVWTFLKNTPGWLLPVTLPLHVAVTAGLLLLHWRRGDVAPAIRGIRAALKREDLDQVMADRRLIQARRKASPGAILRVMSIDPAAFIGRRFVIRKWRGA	failed
MPSGRTHTKINLISLPVVLFMLFSYGLTNFDFLLTFAIGFLVGTTFLTPDLDTYSNAYNKWGFLRIFWYPYKKVMPHRSFFTHTIILGDVIRIAYMLIVFSPFLFLLNVIALDGNLIEMAKEHEVEIVTFVMGIVVASTLHIIADKVNTRRKKMMRKKKKRRR	failed
MPSLLETKGPKITLGLDLRGGLNMLLGVQTDEALKNKYLSLASALEYNAKKQNILLKDIKSNLEGISFELLDEDEAKKLDALLLELQGHSQFEIKKEAGFYSVNLTPLEQEELRKNTILQVIGIIRNRLDQFGLAEPVVIQQGKEEISVQLPGIKTLEEERRAKDLISRSAHLQMMAVDEEHNKDAMKMTDLEAQKLGSVLLSDVEMGGKILLKAIPILDGEMLTDAKVVYDQNNQPVVSFTLDAQGAKIFGDFSGANVGKRMAIVLDNKVYSAPVIRERIGGGSGQISGNFSVAQASDLAIALRSGAMSAPIQVLEKRIIGPSLGKDSVKTSIIALVGGFILVMGFMVLYYSMAGVIACLALVVNLFLIVAVMAIFGATLTLPGMAGIVLTVGIAVDANIIINERIREVLRENEGIAKAIHLGYINASRAIFDSNITSLIASVLLYAYGTGAIKGFALTTGIGILASIITAIVGTQGIYQALLPKLTQTKSLYFWFGVNKRA	failed
MPSLPASAESLLPPTLDESTRLEVLRGLCLLDSPPDPVFDTVAAMAARSLDAEIAVVSLVDEHRQWFKARIGLEARETPRSQAFCAHAIRSDEVMVVPDAQLDPRFCDNPLVLGPPFIRFYAGAPLKLRDGHRIGTLCVIGTSPRPGLDQAAITQLEGLRDLAVLRVENLRSTTYRDGPTGLPNRSRFSEDLDTWLSQRDTAPATTAVAIDVCGSDYFRDMVKALGWEYADGYIALAQRRLAAYLPGGTLLYRLDPTTFGFLAQAEGQRLATLCTKVSKAFTEPLEHQGIPHTAVASIGAVSLQSSYGAADTIRSLTTAVDIARERCLPWSMYERKHDVAQRNTFRLLAALPAALDSSSQLRLHFQPRVDLHDHRCVGVEALLRWQHPMIGPVMPSDFIPMAEKTALINRITAWVIDNGIAQAARWQQQGLDFNLALNVSAADLDRPGFAGLLRRGLDRHKLDPRRLEIEFTESAMIRHPDHLAEQLAAIAALGVHIAIDDFGTGYSNFSYLKQLPASSLKIDQSFIRSLPDSRTDRTLVPAMIQLGHSLGQRVVAEGIESAEAYAQLRAWGCDEGQGYWIAKPMPAAALETWLETPWHEQHAAPVNLLAASLAAARV	failed
MPSMPFLTRPVLAAGTFSGAPQPTLPTGDGLVLRPWRTEDAPAVHVAFQDPVMHQWHARAADSEEEVRGWITEWQGAWERERGVQWAVADAADDRLLGRVALREWVLGDGVAEVAYWTTADARGRGVAARATRTLAHWALDEIGFQRLELLHAVANDASCRVAQKTGFALEGTKRKAVLHPDGWHDMHLHARVRGD	failed
MPSPARTLLLAFVSAWFLLGGLGHFVFTDFFVGIVPPYVPWPLAAVWVSGVFELLGAAALLVPAWRRLAACGLFILTLCVTPANLYMWQHPDLFPSFPPTLLAARLALQAFLLGCILALMLARDEAPLARR	failed
MPSSAFPDTRMTLACRRMAGGASALPSFRMGAGLAFQPGLENAMSTVQDYIVADIGLADYGRKELDIAETEMPGLMSCRSELGETKPLKGARISGSLHMTIQTAVLIETLTALGAEVRWASCNIFSTQDHAAAAIAASGVPVFAVKGESLTEYWDYTDRIFQWTDGGQSNMILDDGGDATMYILLGARAEAGENVLVNPSSEEEEILFAQIKKRMAATPGFFTKQRDAIKGVTEETTTGVNRLYQLSQKGLLPFPAINVNDSVTKSKFDNKYGCKESLVDGIRRATDVMMAGKVAVVCGYGDVGKGCAASLIGAGARVKVTEVDPICALQAAMDGFEVVRLEDVVKTADIFITTTGNKDVIRIEHMREMKDMAIVGNIGHFDNEIQVVALKNLKWVNIKPQVDMIEFPAGNRMILLSEGRLLNLGNATGHPSFVMSASFTNQVLAQIELFTKPDAYKNQVYVLPKHLDEKVARLHLEKLGVRLTELSDEQASYIGVTPSGPFKADHYRY	failed
MPSSILSESMIQAFFWSLITIGMYFITQKLYRRWPFWWLMPLALTPILVASVVLLLHVNYQDYFRGTKWLVLLIGPATVAFAIPIYEKRALIRQHWPVLLIGVIVGSFTAIASSWGLAILLGLDDNLRLSLLPRSISTPFAIEISRGIGAAPDLTAIFVIVTGILGAILGEFILSRLPFNSALARGALLGVGAHAAGTAQAHKIGNTEGAIASLAMILVGLFNILLLPLISYLLK	failed
MPTCAPAMVTTLYETPEHACLMFSDLVDDHDDQSVQTNQFLVVDHGHGALIDPGGNMTYNALYLAMNQYFPPKQLDYVLASHADPDIVASAGRWLTSSNCNILISRVWERFLPHFCNVGKTDGRILPIPDTGMAIPIGQSHLLAVPAHFLHSEGNFQFYDPVSRILFSGDLGASMVHAEIAAAPVEDFDAHIPLMAPFHRRYMSGNRVCRLWAEMVRGLEIEWIVPQHGRAFHGPAMVRRFIDWVETLTCGIDLMTQETFRLPALPRVAAGAPLRTPQP	failed
MPTDRSTPATRHRLGGWMASEEAHMAAYREKIAGEARAHAGERLRTPAVQELARLFDDNAVLRMSLTRAIDEALESGRKLGYASIGELMTVIDHLMTYTPPFSESSLIVCPLNAFLDWPMCMPSGHAVFRDAAVNAHLKQVLNVWCDFLGGPHSCTHLDTSAPDGWFCDEARERLGLSQFQYQEDQPHWGFASWNDFFTRRFRADARPVTAPGDPHVIVSACEAQPYHAESNLKIRDKFWIKGQPYSLRDIFTPARLPLAERFVGGDLYQAYLSAYNYHRWHAPVRGTVTHAYRVDGTYYSVAEAEGPDPAGLNDSQGYMTAVAARAVIAIDCDDPGIGTVVGVFVGMGDVSSCVIEVMPGQRIDKGEEIGYFQYGGSTYCLLFEPGVIDHFVHAPPFDDDTPVVQVNAPVAIAR	failed
MPTDYIRNGVLYVTENYLCFESSKSGSSKRNKVIKLVDITDIQKYKVLSVLPGSGMGIAVSTPSTQKPLVFGAMVHRDEAFETILSQYIKITSAAASGGDS	failed
MPTFNPELHAQTLNSERAYFVQPDADPAFTPHIGALVEMLTYARLTTLQAVEGLPEDQLWATAPGFANSIGTLLAHIAAVERVYHVLSFQGRDVTPEDDGAAYWGLTMGKEGTAPARLPTLDELRAELADARAETLRVFAAKDDAWLAEPLGPGWANQHWAWFHVMEDEVNHRGQLRLLRQVLAPEEGG	not failed
MPTIEDRYARLDAARWLAALAVVLLHSAAQTVSDPAAYGSHAWLAANLYDSAAHWCVPVFVMVSGALLLDPDQPHDARRFYSRRMARVCAPLLFWTLFYLAWRTALDWWDDGRLDFSFWPRKVAEGAPYYHLWYLYMIVGLYLFAPLVRLLYARSQPRARALWVVGILGVAVLDALYRRALGGGNGLFLTWFLPYLGYFVAGRLIFDGELRMPRPGLVLAASVAATAWGVSALSDSRALDLYFYDYFSVTVPLMSLAAFQLIVGSPRLPALPALPALAPLTFGIYLIHPLFLDLAHRIGAARAWRPDAWGVPAITAAVFALSALASWMLRRHRLTRRLV	failed
MPTLDALTPIFRQVFDDDSIVLTRETSANDIDAWDSLSHMNLIVSLEVHYKIKFALGELQKLKNVGDLADLVDKKLARKLEHHHHHH	failed
MPTLLMITPENLEIKRFRAYQLNNFMQLTMPYLAGFVPKEYDIRLLDEHTEPIIFEKFDLVAITVNTPNAPYAYAISKKFRELGSWVALGGPHVTLNPEEAALHCDTIFIGEAEETWPQFLNDFLCKKAQKVYTSSRAPSLAGLPIPRRDLIVGNRFISGAVFASRGCPHNCSYCSLKKIYHNTFRTRPVDEVIKDIASMPNKYFVFWDDNFFADPSYTKALLKDLAKLNKKWAAQVTAHSCEDEELLRLAKSAGCLYLFLGLESFSEQGLKDANKSFNKIEQYGKIADKLHRHGISIQAGIVFGFDSDTPDVFETTLKACNDIGIDGVTASILTPFPGTGIYDQYKNEGRLLDVGWNYYNGKTRVAYVPKQMSPEELLNGYNEFRRKFYSWKSIIKRICKSRVNIFYNLAMNYGYRQAYRNFAKLDIGDSKGMNIFEQLI	failed
MPTNAGTSLSSYKHIVAIGTTVKSESLESAAYEIPRKRKMRSDSAAVSGNSVSTPKKLKSHLPSSVPNPGMSEKEVVEDSNEILRYPVNLAVSDCLGTKSKWSPRDEEQMRAVKEALHVSKAPSTILCREDEQIRIFEFVKGCIDQQKAGSLYICGCPGTGKSLSMEKVVQQVGDWSTQAGLPPVDTLSVNCTSLSKTTDIFSKILGEIKPGKNANTNSSPLQHLQNLFSQKQESSSSRMMLIIADEMDYLITKDRGVLYDLFMLTTLPFSRCILIGVANAIDLADRFLPKLKSLNCKPMVITFRAYSKDQILRILQERLRVLSYVAFQPKALELCARKVAAASGDMRKALCVCRSALEILEIETRGSTGPESQGPTPDDSVVRMDHMAAALSKTFKSPVVETIQSLPQHQQIIICAAAKAFRGSKKDATVGELNKLYLEICKSWMISPAGITEFTNMCTVLNDQGILKVGQARRDKLKRVSLRVDESDITFALQVNSLFILFFANP	failed
MPVDLQALYPRLIHLMLDTVFVVDRDNQIVFVSDACKTLLGYEACELIGTPITRYMHPDDLAATRASIMRVMNGQPHYDFCNRYLRKDGSVVHILWAACWSEEAQARIGVARDVTAQRKAEDELRFLAHHDPLTRLANRAMFNERLDTALAAARRHNRRLALLFLDINDFKQINDNHGHSVGDRVLCTLARRLERCVGAAGTVARMGGDEFTVLLPDCPSPEAIATHVQHILAVMAEPLDAEFAGIDAPSCSIGVARFPEDGNDADMLLRHADGHMYRIKRQRAATG	failed
MPVIHCNKDDSQEASSQTPFLPLGFVFTKLYICLTIYSGGDDESMDGDINKYLVLAIIGVGGLSGLVASQSTGRNFPPATANKTVGR	failed
MPVKLATALSNNLFPALDSQLRAGRHIGIEELENHVFLMDFQEVLEEFYSRYNVELIRAPEGFFYLRPRSTTLIPRSVLSELDMMVGKILCYLYLSPERLAHEGIFSQQELYEELLSLADESKLLKLVNQRSTGSDLDRQKLQEKVRTSLNRLRRLGMIYFMGNDSSKFRITESVFRFGADVRSGDDAREAQLRMIRDGEAMPVEGSLSLKDDSDDNDRTDDTAPETGEDELEHHHHHH	failed
